Patent US20090203886A1 (OSAKA UNIVERSITY, published 2009)
Numbering of substitutions follows the chain as printed. Several values for one entry are separate records, joined by “and”; a condition that tells them apart may be missing. Identical values can stand only once.

T1: human CD20 antigen (human, UniProt P11836 1-297)
T1 sequence (looked up): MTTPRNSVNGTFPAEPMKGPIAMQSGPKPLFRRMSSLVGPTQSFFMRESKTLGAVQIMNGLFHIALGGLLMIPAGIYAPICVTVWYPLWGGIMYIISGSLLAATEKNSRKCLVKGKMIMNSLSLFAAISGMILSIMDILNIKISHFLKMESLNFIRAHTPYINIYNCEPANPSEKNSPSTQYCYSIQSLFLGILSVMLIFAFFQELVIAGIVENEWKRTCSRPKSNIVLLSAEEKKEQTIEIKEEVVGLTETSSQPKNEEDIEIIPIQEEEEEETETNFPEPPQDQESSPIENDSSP

B1: 1K0924 murine anti CD20 monoclonal antibody (antibody, mouse IgG2b, V domains shown)
VH: QVQLQQPGAELVKPGASVKMSCKASGYTFTSYNIHWVKQTPGQGLEWIGAIYPGNGDTSYNQKFKGKATLTSDKSSSTAYMQLSSLTSEDSAVYYCARMSTMITGFDYWGQGTTLTVSS
VL: QIVLSQSPAILSASPGEKVTMTCRASSSVSYMHWYQQRPGSSPKPWIYATSNLASGVPARFSGSGSGTSYYFTISRVEAEDAATYYCQQWNSNPPTHGGGTKLEIK
notes: also called m0924
B2: chimerized 1K1791 antibody (c1791) (antibody, V domains shown)
VH: QIQLVQSGPELKKPGETVKISCKASGYTFTNFGVNWVKQAPGKGLKWMGWINTYTGEPSYADDFKGRFAFSLEASANTAYLQINNLKNDDMSTYFCTRRTNYYGTSYYYAMDYWGQGTSVTVSS
VL: STVMTQTPKFLLVSAGDRVTITCKASQSVSNDVAWYQQKPGQSPKVLIYFASNRYTGVPDRFTGSGYGTDFTFTINTVQAEDLAVYFCQQDYSSPLTFGAGTKLELK
B3: humanized 1K1791 antibody fv (FraL x VenH) (antibody, V domains shown)
VH: QIQLVQSGPELKKPGASVKISCKASGYTFTNFGVNWVKQAPGKGLKWMGWINTYTGEPSYADDFKGRFAFSLDASVSTAYLQISSLKAEDTSTYFCTRRTNYYGTSYYYAMDYWGQGTTVTVSS
VL: STVMTQSPSFLSASVGDRVTITCKASQSVSNDVAWYQQKPGQSPKVLIYFASNRYTGVPDRFSGSGYGTDFTLTISSLQAEDVAVYFCQQDYSSPLTFGAGTKLEIK
notes: Kappa, gamma 1 construct; also called hz1791 fv; Fv010
B4: humanized 1K1791 antibody ff (FraL x FraH) (antibody, V domains shown)
VH: B3 VH with P9S, I20V, V76A, T91M, S92A
VL: B3 VL
notes: Kappa, gamma 1 construct; also called hz1791 ff; Ff019
B5: humanized 1K1791 antibody sf (SdrL x FraH) (antibody, V domains shown)
VH: B3 VH with P9S, I20V, V76A, T91M, S92A
VL: STVMTQSPDSLAVSLGERATINCKSSQSNSNDVAWYQQKPGQSPKVLIYFASNRYSGVPDRFSGSGYGTDFTLTISSLQAEDVAVYFCQQDYSSPLTFGAGTKLEIK
notes: Kappa, gamma 1 construct; also called hz1791 sf; Sf043
B6: humanized 1K1791 antibody ss (SdrL x SdrH) (antibody, V domains shown)
VH: B3 VH with P9S, I20V, K38R, D62Q, D63G, K65T, S92A
VL: B5 VL
notes: Kappa, gamma 1 construct; also called hz1791 ss; Ss020
B7: humanized 1K1791 antibody as (AbbL x SdrH) (antibody, V domains shown)
VH: B3 VH with P9S, I20V, K38R, D62Q, D63G, K65T, S92A
VL: B5 VL with N29V
notes: Kappa, gamma 1 construct; also called hz1791 as; As001
B8: humanized 1K1791 antibody vv (VenL x VenH) (antibody, V domains shown)
VH: B3 VH
VL: B5 VL with A19V, S25A, N29V, S56T, L73F, L78V, I106L
notes: Kappa, gamma 1 construct; also called hz1791 vv; Vv018
B9: humanized 1K1791 antibody af (AbbL x FraH) (antibody, V domains shown)
VH: B3 VH with P9S, I20V, V76A, T91M, S92A
VL: B5 VL with N29V
notes: Kappa, gamma 1 construct; also called hz1791 af; Af021
B10: humanized 1K1791 antibody aa (AbbL x AbbH) (antibody, V domains shown)
VH: B3 VH with P9S, I20V, K38R, K46E, D62Q, D63G, K65T, A69V, S92A
VL: B5 VL with N29V
notes: Whole humanized antibody from CHO cells; construct name ends kg1 (kappa, gamma 1); The two clones are producer clones of one construct; also called hz1791 aa; Aa008
B11: humanized 1K1791 antibody vs (VenL x SdrH) (antibody, V domains shown)
VH: B3 VH with P9S, I20V, K38R, D62Q, D63G, K65T, S92A
VL: B5 VL with A19V, S25A, N29V, S56T, L73F, L78V, I106L
notes: Kappa, gamma 1 construct; also called hz1791 vs; Vs006
B12: humanized 1K1791 antibody fa (FraL x AbbH) (antibody, V domains shown)
VH: B3 VH with P9S, I20V, K38R, K46E, D62Q, D63G, K65T, A69V, S92A
VL: B3 VL
notes: Kappa, gamma 1 construct; also called hz1791 fa; Fa007
B13: humanized 1K1791 antibody vf (VenL x FraH) (antibody, V domains shown)
VH: B3 VH with P9S, I20V, V76A, T91M, S92A
VL: B5 VL with A19V, S25A, N29V, S56T, L73F, L78V, I106L
notes: Kappa, gamma 1 construct; also called hz1791 vf; Vf029
B14: humanized 1K1791 antibody av (AbbL x VenH) (antibody, V domains shown)
VH: B3 VH
VL: B5 VL with N29V
notes: Kappa, gamma 1 construct; also called hz1791 av; Av004
B15: humanized 1K1791 antibody va (VenL x AbbH) (antibody, V domains shown)
VH: B3 VH with P9S, I20V, K38R, K46E, D62Q, D63G, K65T, A69V, S92A
VL: B5 VL with A19V, S25A, N29V, S56T, L73F, L78V, I106L
notes: Kappa, gamma 1 construct; also called hz1791 va; Va016
B16: humanized 1K1791 antibody sa (SdrL x AbbH) (antibody, V domains shown)
VH: B3 VH with P9S, I20V, K38R, K46E, D62Q, D63G, K65T, A69V, S92A
VL: B5 VL
notes: Kappa, gamma 1 construct; also called hz1791 sa; Sa023
B17: humanized 1K1791 antibody fs (FraL x SdrH) (antibody, V domains shown)
VH: B3 VH with P9S, I20V, K38R, D62Q, D63G, K65T, S92A
VL: B3 VL
notes: Kappa, gamma 1 construct; also called hz1791 fs; Fs007
B18: humanized 1K1791 antibody sv (SdrL x VenH) (antibody, V domains shown)
VH: B3 VH
VL: B5 VL
notes: Kappa, gamma 1 construct; also called hz1791 sv; Sv015

Target: T1, human CD20 antigen
Assay: cell-based or functional assay

| Binder | Capacity to Induce Apoptosis (Raji cells) |
| --- | --- |
| B1 | 60 |

Target: T1, human CD20 antigen
Assay: cell-based or functional assay
Remark: another data set of the same source

| Binder | CDC (10 ug/ml), RAJI | CDC (10 ug/ml), RC-K8 | CDC (10 ug/ml), SUDHL4 | CDC (10 ug/ml), WIL2NS |
| --- | --- | --- | --- | --- |
| B2 | 99 relative, c2B8 = 100 | 100 relative, c2B8 = 100 | 119 relative, c2B8 = 100 | 529 relative, c2B8 = 100 |
| B3 | 99 relative, c2B8 = 100 | 498 relative, c2B8 = 100 | 120 relative, c2B8 = 100 | 172 relative, c2B8 = 100 |
| B4 | 98 relative, c2B8 = 100 | 530 relative, c2B8 = 100 | 121 relative, c2B8 = 100 | 203 relative, c2B8 = 100 |
| B5 | 78 relative, c2B8 = 100 | 713 relative, c2B8 = 100 | 111 relative, c2B8 = 100 | 295 relative, c2B8 = 100 |
| B6 | 73 relative, c2B8 = 100 | 108 relative, c2B8 = 100 | 61 relative, c2B8 = 100 | 120 relative, c2B8 = 100 |

Target: T1, human CD20 antigen
Assay: cell-based or functional assay
Remark: another data set of the same source

| Binder | Apoptosis (5 ug/ml), DHL4 | Apoptosis (5 ug/ml), RAJI | Apoptosis (5 ug/ml), RCK8 | Apoptosis (5 ug/ml), Wil2-NS |
| --- | --- | --- | --- | --- |
| B3 | 65 relative, m2B8 = 100 | 88 relative, m2B8 = 100 | 50 relative, m2B8 = 100 | 49 relative, m2B8 = 100 |
| B4 | 96 relative, m2B8 = 100 | 84 relative, m2B8 = 100 | 47 relative, m2B8 = 100 | 49 relative, m2B8 = 100 |
| B5 | 143 relative, m2B8 = 100 | 205 relative, m2B8 = 100 | 93 relative, m2B8 = 100 | 100 relative, m2B8 = 100 |
| B6 | 133 relative, m2B8 = 100 | 202 relative, m2B8 = 100 | 92 relative, m2B8 = 100 | 108 relative, m2B8 = 100 |

Target: T1, human CD20 antigen
Assay: Scatchard analysis on Raji cells, FITC anti human Fc secondary (Example 3)
Description: (§1) The reaction solution was 1% BSA-PBS solution with a cell number of 5×10⁶ cells and was injected into a 1.5 ml tube to a final volume of 100 μl. Three samples for each test antibody were prepared and four tubes to which antibody was not added were prepared as samples for background calculations.
(§2) After the detecting step, an image was digitized using image analysis software Image Quant (Amersham Bioscience) and analyzed using Excel (Microsoft). Average values for the same test antibodies were calculated and the values for background calculation samples (when only reacting a cell with a FITC-labeled secondary antibody) were subtracted from the test antibody values. The background values derived for the FITC-labeled secondary antibody binding non-specifically to cells, the PBS solution and the plate are omitted. At the same time, a standard curve was prepared by measuring the amount of fluorescence of only FITC-labeled secondary antibodies at amounts of 0, 12.5, 25, 50, 75, 100, 125, and 150 ng per 100 μl. In this manner, the number of moles of secondary antibody binding to cells was calculated. Assuming that each primary antibody and the FITC-labeled secondary antibody react at a ratio of […], the amount of cell-bound primary antibody was calculated. Primary antibody in suspension was calculated by subtracting the bound amount from the added amount. Scatchard analysis was performed using these values in order to calculate a dissociation constant Kd.

| Binder | Kd |
| --- | --- |
| B3 | 7.17 nM and 7.25 nM |
| B7 | 11.9 nM and 11.5 nM |
| B8 | 7.14 nM and 7.01 nM |
| B4 | 8.5 nM and 7.81 nM |
| B9 | 6.84 nM and 8.67 nM |
| B10 | 11.7 nM and 9.96 nM |
| B5 | 11.6 nM and 13.8 nM |
| B11 | 8.8 nM and 11.9 nM |
| B12 | 11.3 nM and 8.83 nM |
| B6 | 24.4 nM and 21.8 nM |
| B13 | 7.78 nM and 7.79 nM |
| B14 | 10.7 nM and 9.17 nM |
| B15 | 13.1 nM and 7.5 nM |
| B16 | 14.7 nM |
| B17 | 6.33 nM and 11.1 nM |
| B18 | 14.3 nM and 10.8 nM |

Target: T1, human CD20 antigen
Assay: Scatchard analysis on Raji cells, FITC secondary antibody fluorescence (Example 2)
Description: The mixture was shaken for one hour at room temperature while shielding against light and primary antibodies binding to cells were detected. After the reaction, the mixture was centrifuged at 3,000 rpm for three minutes and the cells were recovered. The cells were suspended in 200 μl of PBS to remove unreacted FITC-labeled anti murine IgG (H&L) antibody remaining on the cell surface and then centrifuged at 3,000 rpm for three minutes to remove the supernatant. This operation was repeated twice.
After the detection step, the image was digitized using image analysis software Image Quant (Amersham Bioscience) and analyzed using Excel (Microsoft). Background values for the plate, the PBS solution and FITC-labeled secondary antibody displaying non-specific binding to cells were determined. Then a value for the reaction only between the cells and the FITC-labeled secondary antibodies was obtained. Average values for those four points were subtracted from the fluorescent intensity value for each sample in order to obtain the amount of fluorescence of cell-conjugated FITC-labeled secondary antibody. A standard curve was prepared by measuring the amount of fluorescence at various concentrations of control cell-conjugated FITC-labeled secondary antibodies. Thus the amount of cell-conjugated secondary antibody (number of moles or weight) was calculated. The amount of cell-conjugated primary antibody was calculated assuming that each primary antibody and the FITC-labeled secondary antibody react at a ratio of 1:2. Primary antibody in suspension was calculated by subtracting the cell-conjugated amount from the added amount. When calculating the antibody concentration as a molar concentration, the molecular weight of the monoclonal was taken to be 150,000.
Scatchard analysis was used to calculate the antigen number and dissociation constant (Kd value) refer to Scatchard, G.; Ann. N.Y. Acad.

| Binder | Kd |
| --- | --- |
| B1 | 1.35 nM |

Target: T1, human CD20 antigen
Assay: Scatchard analysis on Raji cells (Example 3), average over the clones of the construct
Description: as §1, §2

| Binder | Kd |
| --- | --- |
| B3 | 7.21 nM |
| B7 | 11.7 nM |
| B8 | 7.07 nM |
| B4 | 8.15 nM |
| B9 | 7.76 nM |
| B10 | 10.8 nM |
| B5 | 12.7 nM |
| B11 | 10.3 nM |
| B12 | 10.1 nM |
| B6 | 23.1 nM |
| B13 | 7.78 nM |
| B14 | 9.94 nM |
| B15 | 10.3 nM |
| B16 | 14.7 nM |
| B17 | 8.71 nM |
| B18 | 12.6 nM |
